Laboratory results: publication PMC6167709

Experiments:
[1] = SEC; ConSOSL.UFO.664 from concentrated 293T.17 supernatant, in PBS, Enrich SEC 650 column; oligomeric state of the gp140
[2] = molecular target: ConSOSL.UFO.664 gp140 (HIV-1 (group M consensus, ConS)); assay: as above

In the case of ConSOSL.UFO.664 gp140, the “share of the trimer peak in the SEC profile” value [1] is reported as “trimer peak ∼54%” and the stoichiometry N [2] is reported as 3.
